Data: the supplement of paper PMC10126150
± gives the standard deviation of the averaged measurements.

Test system: ATP
Experiment: switch fluorescence ratio, 500 uM ATP over buffer (Cy3 cluster intensity, sum of 5 cycles each) (fold (ratio)); higher = stronger signal-on switching upon ATP binding; sequences stand for … in TCGTCGGCAGCGTCAGATGTGTATAAGAGACAGTTTTTTTTTTTTTTTTTTTTTTTTT…TC
Conditions: aptamer strand: ATP DNA aptamer (quencher-CACCTGGGGGAGTATTGCGGAGGAAGG + anchor), 100 nM annealed; ATP concentration: 500 uM
Method in brief: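 The fluorescence ratio divides summed target-cycle Cy3 intensity by summed buffer-cycle Cy3 intensity for each cluster and is averaged per switch-domain sequence. Cy3-labelled switching-strand clusters on a modified Illumina MiSeq flow-cell were annealed to 100 nM quencher-labelled ATP aptamer, then imaged in selection buffer and again after 15 min with 500 uM ATP at 22 °C. Five such cycles were run, with NaOH stripping and re-annealing between them, and clusters outside 100-1000 RFU were excluded.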
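Further: ATP exposure 15 min at 22 °C before imaging.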

Sequence | switch fluorescence ratio
AGTAAGCGAC | 1.063 ± 0.0014
CGCATTTAAG | 1.18 ± 0.046
AAGGTGCCGG | 1.0373 ± 0.00076
AAAATCCTTG | 1.01 ± 0.04
TTCGAAACGA | 1.1 ± 0.14
GCTAAGTCGG | 0.982 ± 0.0085
CCTTTAGGGT | 0.9997 ± 0.0014
TTACAGCCTG | 1 ± 0.04
ATTTCGTGGT | 0.9759 ± 0.0096
GGGAATTCTG | 0.985 ± 0.023
ATCACGTTTT | 0.991 ± 0.051
TAGTATGGGG | 0.976 ± 0.045
GTTGGGGGTG | 0.992 ± 0.037
GATTTAGAGC | 0.973 ± 0.037
TTTTTATAAA | 1.01 ± 0.039
CAGGGTGAAT | 0.9909 ± 0.0056
TATTCCGCC | 2.29 ± 0.033
TGTTAAAGGG | 1.03 ± 0.024
AATTAAGGGT | 0.9881 ± 0.0058
TAAATAGAAT | 1.11 ± 0.1
CAATGGATTT | 1.026 ± 0.007
TTTCAGTTCC | 1.08 ± 0.002
TTGAGTGCTT | 0.987 ± 0.028
GATAAAGGGT | 1.005 ± 0.0052
AAATTATTT | 1.02 ± 0.051

Sequence | switch fluorescence ratio
GGTTTGTGGT | 1.03 ± 0.062
TTGTAATGAT | 0.988 ± 0.027
CATGTTTAGG | 0.986 ± 0.017
GGGTTTGAAT | 0.978 ± 0.032
GATGTTGTTG | 0.997 ± 0.054
AATGCGTGGC | 1.0436 ± 0.00057
TGTGTGGGTT | 1.01 ± 0.035
GGGGAATTAG | 0.973 ± 0.008
TAATTTGTGC | 1.01 ± 0.044
GAGTCCGTAC | 1.31 ± 0.017
CGCCCCGCTG | 1.13 ± 0.071
AAGTAATGGG | 0.961 ± 0.041
GGCGAAGTCG | 0.999 ± 0.023
GAAGTTTGTT | 0.98 ± 0.026
GGTAGTTAGG | 1.03 ± 0.013
GCAGCGGACT | 1.29 ± 0.042
ATGTACGTAG | 1.03 ± 0.025
GGAAGGAATG | 0.966 ± 0.0076
AGTTTGCTTG | 0.993 ± 0.025
TCAGATTGTT | 0.9623 ± 0.0028
ATCCATACAA | 1.03 ± 0.035
ACTGTCGCCA | 1.023 ± 0.0059
GAAACAGGGA | 1.06 ± 0.057
TTGTATTTTG | 0.985 ± 0.038
GGATTGCCGA | 1.01 ± 0.043

Sequence | switch fluorescence ratio
TTCTGGTGTG | 0.9703 ± 0.0072
GCTCGCAGAT | 1.21 ± 0.042
CTGTGGGTTT | 1.01 ± 0.026
TCTGGCGTAA | 1.79 ± 1.1
TGCCAATGAA | 0.965 ± 0.02
CCGAGGGAGA | 1.25 ± 0.024
AAGAGCGAAG | 1.01 ± 0.014
ATAGGGGTTC | 0.994 ± 0.035
GTTGAGTAGG | 0.994 ± 0.012
ATAGGGGCAG | 0.996 ± 0.03
TTTTTTGAGT | 1 ± 0.023
TTGGTAGTGC | 0.973 ± 0.015
TATCAGCTGA | 0.9974 ± 0.0036
ATCATTTAGT | 0.982 ± 0.027
ATCGTTGTA | 1.04 ± 0.069
CAAAGTTCGC | 0.9838 ± 0.0076
TTGGAATGGA | 0.989 ± 0.029
GTTATCTAGC | 0.994 ± 0.017
GCGTTGATGA | 1.01 ± 0.019
CGAAAAATGG | 1.04 ± 0.046
TAAAGAGTCG | 1.02 ± 0.063
ATATTACGAA | 1.02 ± 0.035
CGAGTCCTGT | 1 ± 0.02
CTTACGTTAT | 1.13 ± 0.036
TTAAAAGGTT | 1.01 ± 0.029

Sequence | switch fluorescence ratio
TTTTACACAT | 1.025 ± 0.0057
CGGGGGACTA | 0.985 ± 0.015
GGGTAAAGTT | 1.01 ± 0.027
GATCTGAACT | 1 ± 0.059
TCAGGGGAAG | 0.999 ± 0.015
GGCACTGGGG | 1.02 ± 0.02
TTGGACGGAA | 1.224 ± 0.0051
AATAAGGGA | 1.03 ± 0.1
TATAATTGCC | 0.991 ± 0.0076
CCGGGGGCAG | 1.105 ± 0.0064
TTTTTTGATG | 1.01 ± 0.027
GATCAGCCCC | 1.02 ± 0.031
GGTTCAAGGC | 1.05 ± 0.051
CGGAGCTACG | 1.49 ± 0.04
TGGGAAAAAA | 0.985 ± 0.035
TTTGATTGGT | 0.99 ± 0.038
TCTGATGGAA | 1.06 ± 0.037
CGGTGGGTGT | 0.931 ± 0.011
GATTATGGGG | 1.01 ± 0.013
GGATTAGGGG | 0.998 ± 0.022
AAATAGTGGG | 0.986 ± 0.026
ATTGTAGAGC | 1.02 ± 0.01
CCGGAACGGT | 0.986 ± 0.031
ATTGTGTCTT | 0.99 ± 0.013
ATTACGGTCA | 1.02 ± 0.038

Sequence | switch fluorescence ratio
TAGTTTTTAG | 0.981 ± 0.018
ATGTATTAAG | 0.98 ± 0.015
TAAAGTATAT | 0.9976 ± 0.004
TGGCGAGGCG | 1.046 ± 0.0077
GTTGGGGGTA | 0.999 ± 0.028
CAGTCTTCTT | 1.02 ± 0.026
TGAAAAAACA | 1.02 ± 0.019
ATATAAAACG | 0.983 ± 0.018
TGCTGTAGGG | 0.966 ± 0.053
AACCTGTCGC | 1.3964 ± 0.0013
ATTCAGAAGA | 1.07 ± 0.12
TTGAGGTACT | 0.971 ± 0.052
AAAACAAGGG | 1.01 ± 0.012
TTTCCTCCCT | 1.84 ± 0.5
TAGGGGTTGG | 0.987 ± 0.03
CGGATGAGGC | 1.08 ± 0.018
GTTGCGGGGG | 0.9937 ± 0.0015
AGAGCGGA | 0.981 ± 0.011
GGGAGTCCCA | 0.9973 ± 0.0078
ATACTAGGAG | 1 ± 0.026
AGCCTTGGGA | 1 ± 0.024
ATGCTGTTGG | 1 ± 0.026
TAAAATTCTT | 1.01 ± 0.025
TTAATTAATA | 0.985 ± 0.013
GGGTGCATGC | 1.07 ± 0.084

Sequence | switch fluorescence ratio
ATTAGAAGAC | 1 ± 0.027
GCCTTTGGCT | 0.996 ± 0.049
AAAGATGGGA | 1.003 ± 0.0081
TTGATCCGGG | 1.1 ± 0.055
GGAAAAAGGG | 1 ± 0.02
CTAAATAGGG | 1.01 ± 0.049
GACTCTTGCG | 0.964 ± 0.029
GCAAGGTAGC | 1.07 ± 0.011
GTTGTCGGGG | 1.02 ± 0.018
TTTGTGGGAC | 1.11 ± 0.066
GTGGTTTCTG | 0.984 ± 0.1
GAGATTCGCC | 1.02 ± 0.054
GGTGTTGGTA | 0.974 ± 0.029
AATAATTTCG | 1.007 ± 0.0082
CGATTTTTTT | 1.02 ± 0.05
AAAATGTAGA | 0.9919 ± 0.0016
GGATAATAAG | 1.01 ± 0.029
GGCCCTAGTA | 1 ± 0.059
GAAACAGGCA | 0.963 ± 0.017
GGCGGGCGCT | 0.993 ± 0.032
CTGGGAAGGC | 1.13 ± 0.04
ATCGCATATG | 1.08 ± 0.053
GACATCGGCA | 1.03 ± 0.016
AAAGGGGGC | 0.974 ± 0.067
TGTTAGGGTG | 1.04 ± 0.033

Sequence | switch fluorescence ratio
AGGTCGTGGG | 0.996 ± 0.016
TGTAATTGGG | 0.9881 ± 0.0015
TTCGTGGGGT | 1.03 ± 0.061
ATCAATTTAG | 1.02 ± 0.038
ATGTGATGCT | 1.012 ± 0.0044
TTACATGTCC | 1.039 ± 0.0089
AGTTGGAGCG | 1.026 ± 0.0041
AGCTCTGGCC | 0.961 ± 0.04
TTAGAAATAT | 1.01 ± 0.016
GCTTATTGTA | 0.9813 ± 0.0081
AGCTGGTCCG | 1.02 ± 0.022
ACATGCTACG | 1.05 ± 0.034
CGGTTGGCCT | 0.9978 ± 0.0069
TGCACACGTG | 0.9787 ± 0.0068
TTTGAAGGGT | 1.0199 ± 0.00081
TGGGTATCTT | 1.03 ± 0.061
TATGATTTGC | 1 ± 0.012
GGGGCAGGAC | 1.54 ± 0.7
GTTAGAGGGT | 1.01 ± 0.021
GTTTTTCAAG | 0.975 ± 0.01
TGGTTGGAGC | 0.997 ± 0.029
TTGGAAGTGC | 1 ± 0.056
CAATATTGCC | 1.02 ± 0.051
CGTCTGGTGC | 1.03 ± 0.029
GGTTTGGTGG | 0.992 ± 0.028

Sequence | switch fluorescence ratio
CCAAGCGTGC | 1.76 ± 0.64
GGATTGAAGT | 0.981 ± 0.023
AATGCGTATG | 1.02 ± 0.036
AGCCCTGGGG | 1.02 ± 0.011
AATGTCATTT | 1 ± 0.018
ATTTTCACC | 1.0095 ± 0.00081
GCGGAGGGGC | 1.0106 ± 3e-05
CCGGGGTTGG | 1 ± 0.012
TGTTTTCTAG | 0.99 ± 0.022
TGCGGGGAGG | 1.01 ± 0.0017
AGTCGGGAGA | 1.01 ± 0.015
GGGCTGGTTC | 1.03 ± 0.017
GGTGTCGCTA | 0.9795 ± 0.0094
TTGGTGTCGC | 1.016 ± 0.0034
TTGAGGGGAA | 0.999 ± 0.025
GAATGTTAGT | 0.964 ± 0.013
TTTGATTTAC | 1 ± 0.028
GTGTTTTTTT | 0.991 ± 0.023
TGTACGTGGC | 1.08 ± 0.086
TATGTATATA | 1.01 ± 0.079
AAGAGTTCCT | 1.03 ± 0.032
CAAAAAAATG | 0.999 ± 0.03
TAACGAAAAA | 1.03 ± 0.062
CACGGATGTT | 1.02 ± 0.093
CTGGGTTGTT | 1.0204 ± 0.00077
